Target: T1, IL-17A (human, UniProt Q16552)
T1 sequence: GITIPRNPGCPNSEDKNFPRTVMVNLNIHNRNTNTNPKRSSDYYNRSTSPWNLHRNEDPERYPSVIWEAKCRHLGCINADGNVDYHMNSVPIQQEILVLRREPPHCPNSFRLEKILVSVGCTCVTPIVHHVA
Assay: cell-based or functional assay

Relative potency of Formulation A (% relative to Formulation B; ratio of EC50s), 1 month at 5° C.: 101%
Relative potency of Formulation A (% relative to Formulation B; ratio of EC50s), 1 month at 25° C.: 98%
Relative potency of Formulation A (% relative to Formulation B; ratio of EC50s), 1 month at 35° C.: 101%
Relative potency of Formulation A (% relative to Formulation B; ratio of EC50s), 6 months at 5° C.: 103%
Relative potency of Formulation A (% relative to Formulation B; ratio of EC50s), 12 months at 5° C.: 98%
B1: ixekizumab (antibody, V domains shown)
VH: QVQLVQSGAEVKKPGSSVKVSCKASGYSFTDYHIHWVRQAPGQGLEWMGVINPMYGTTDYNQRFKGRVTITADESTSTAYMELSSLRSEDTAVYYCARYDYFTGTGVYWGQGTLVTVSS
VL: DIVMTQTPLSLSVTPGQPASISCRSSRSLVHSRGNTYLHWYLQKPGQSPQLLIYKVSNRFIGVPDRFSGSGSGTDFTLKISRVEAEDVGVYYCSQSTHLPFTFGQGTKLEIKR

Reference: patent US20230183334A1, “THERAPEUTIC ANTIBODY FORMULATION” (published 2023)
